{"source": "paper PMC3912200", "about": "“Structural and Functional Characterization of Cargo-Binding Sites on the μ4-Subunit of Adaptor Protein Complex 4” (PLoS ONE, 2014)", "molecules": {"B1": {"name": "S254K: μ4 mutant, μ4-binding site, Y2H construct (protein)", "chain": "MISQFFILSSKGDPLIYKDFRGDSGGRDVAELFYRKLTGLPGDESPVVMHHHGRHFIHIRHSGLYLVVTTSENVSPFSLLELLSRLATLLGDYCGSLGEGTISRNVALVYELLDEVLDYGYVQTTSTEMLRNFIQTEAVVSKPFSLFDLSSVGLFGAETQQSKVAPSSAASRPVLSSRSDQSQKNEVFLDVVERLSVLIASNGSLLKVDVQGEIRLKSFLPSGSEMRIGLTEEFCVGKSELRGYGPGIRVDEVKFHSSVNLDEFESHRILRLQPPQGELTVMRYQLSDDLPSPLPFRLFPSVQWDRGSGRLQVYLKLRCDLLSKSQALNVRLHLPLPRGVVSLSQELSSPEQKAELAEGALRWDLPRVQGGSQLSGLFQMDVPGPPGPPSHGLSTSASPLGLGPASLSFELPRHTCSGLQVRFLRLAFRPCGNANPHKWVRHLSHSDAYVIRI", "modifications": "left off: Gal4 activation domain, end not stated, kept"}, "B2": {"name": "W439S: μ4 mutant, μ2-binding site, Y2H construct (protein)", "chain": "B1 chain with K254S, W439S", "modifications": "left off: Gal4 activation domain, end not stated, kept"}, "B3": {"name": "E265R: μ4 mutant, μ4-binding site, Y2H construct (protein)", "chain": "B1 chain with K254S, E265R", "modifications": "left off: Gal4 activation domain, end not stated, kept"}, "B4": {"name": "R441A: μ4 mutant, μ2-binding site, Y2H construct (protein)", "chain": "B1 chain with K254S, R441A", "modifications": "left off: Gal4 activation domain, end not stated, kept"}, "B5": {"name": "F188A: μ4 mutant, μ2-binding site, Y2H construct (protein)", "chain": "B1 chain with F188A, K254S", "modifications": "left off: Gal4 activation domain, end not stated, kept"}, "B6": {"name": "K217A: μ4 mutant, μ2-binding site, Y2H construct (protein)", "chain": "B1 chain with K217A, K254S", "modifications": "left off: Gal4 activation domain, end not stated, kept"}, "B7": {"name": "L261K: μ4 mutant, μ4-binding site, Y2H construct (protein)", "chain": "B1 chain with K254S, L261K", "modifications": "left off: Gal4 activation domain, end not stated, kept"}, "B8": {"name": "T280R: μ4 mutant, μ4-binding site, Y2H construct (protein)", "chain": "B1 chain with K254S, T280R", "modifications": "left off: Gal4 activation domain, end not stated, kept"}, "B9": {"name": "S257Q: μ4 mutant, μ4-binding site, Y2H construct (protein)", "chain": "B1 chain with K254S, S257Q", "modifications": "left off: Gal4 activation domain, end not stated, kept"}, "B10": {"name": "F264A: μ4 mutant, μ4-binding site, Y2H construct (protein)", "chain": "B1 chain with K254S, F264A", "modifications": "left off: Gal4 activation domain, end not stated, kept"}, "B11": {"name": "D190S: μ4 mutant, μ2-binding site, Y2H construct (protein)", "chain": "B1 chain with D190S, K254S", "modifications": "left off: Gal4 activation domain, end not stated, kept"}, "B12": {"name": "T280A: μ4 mutant, μ4-binding site, Y2H construct (protein)", "chain": "B1 chain with K254S, T280A", "modifications": "left off: Gal4 activation domain, end not stated, kept"}, "B13": {"name": "µ4-HA: HA-epitope-tagged full-length wild-type μ4, overexpressed (protein)", "chain": "B1 chain with K254S", "modifications": "left off: HA, end not stated, kept"}}, "key": {"[1]": {"tested_on": "cytosolic tail of APP", "assay": "Yeast two-hybrid (Y2H) analysis of μ4 with the APP tail", "assay_type": "binding", "settings": "growth on -His plates, 30°C; for effect of mutation on binding to the APP YKFFE signal (Y2H): mutations at μ4-binding site; for effect of mutation on interaction of the APP tail with μ4 (Y2H): mutations at μ2-binding site", "excerpt": "The cloning of the tail of APP (residues 649–695), full-length human μ4, and all the other yeast two-hybrid (Y2H) constructs, and the cloning of the C-terminal domain of μ4 for expression in E. coli was described previously. To generate a construct for mammalian expression, full-length human μ4 was obtained by PCR amplification and cloned into the EcoRI and SalI sites of pEGFP-N1 (BD BiosciencesClontech, Mountain View, CA) including a stop-codon before the GFP coding sequence. The cloning of APP-GFP carrying the double mutation F615P/D664A was described previously. Single amino acid substitutions were introduced using the QuikChange mutagenesis kit (Stratagene, La Jolla, CA). Y2H assays were performed as previously described. A set of pCI-neo (Promega) constructs encoding hemagglutinin (HA)-epitope tagged wild-type or mutants of human μ4 was a generous gift of J. Bonifacino and R. Mattera (Cell Biology and Metabolism Program, NICHD, NIH). The nucleotide sequences of all recombinant constructs were confirmed by dideoxy sequencing.\nFigure 1 Yeast two-hybrid analysis of the interaction of μ4 with the cytosolic tail of APP. (A) Superposition of the surface and ribbon representations of human wild-type μ4 C-terminal domain (pdb entry 3L81). The insets show an enlargement of the μ4-binding site and the putative μ2-binding site with residues chosen for the yeast two-hybrid (Y2H) analysis. The APP peptide (TYKFFEQ; stick model) bound to the μ4-binding site is in yellow, and the EGFR peptide (FYRALM; stick model; pdb entry 1BW8) superposed to the putative μ2-binding site is in magenta. (B) Sequence alignment of the C-terminal domain of the μ subunits of known crystal structure depicting critical residues at the corresponding μ2- and μ4-binding sites. Disordered loops are in yellow letters, and arrows and cylinders represent β-strands and α-helices, respectively. M.m., Mus musculus; R.n., Rattus norvegicus; H.s., Homo sapiens. (C) and (D) Yeast were co-transformed with plasmids encoding Gal4bd fused to the cytosolic tail of the amyloid precursor protein (APP) indicated on the left, and Gal4ad fused to wild-type or mutant μ4 constructs indicated on top of each panel. (C) Y2H analysis of μ4 with mutations on the YKFFE binding site (μ4-binding site). (D) Y2H analysis of μ4 with mutations on a putative YXXØ binding site (μ2-binding site). Mouse p53 fused to Gal4bd and SV40 large T antigen (T Ag) fused to Gal4ad were used as controls. Co-transformed cells were spotted onto His-deficient (-His) or His-containing (+His) plates and incubated at 30°C. Growth is indicative of interactions. Some mutations on either of the two sites affect the interaction of μ4 with the cytosolic tail of APP."}, "[2]": {"tested_on": "APP-GFP", "assay": "Distribution of APP-GFP in MDA-MB-231 cells", "assay_type": "cell-based, human", "settings": "HA-epitope-tagged constructs, 24 h after transfection; EEA1/TGN46 immunofluorescence", "experimental": "H4 human neuroglioma or MDA-MB-231 human mammary gland epithelial cells obtained from the American Type Culture Collection (Manassas, VA) were maintained in DMEM (H4) or DMEM/F12 (MDA-MB-231) supplemented with 10% (v/v) fetal bovine serum (FBS), 100 U/ml penicillin and 100 µg/ml streptomycin (Life Technologies). Transfections were carried out using Lipofectamine 2000 (Life Technologies) for 1 h at 37°C in the absence of FBS, and cells were analyzed 16, 24 or up to 36-h after transfection, for which we observed no notorious signs of loss in cell viability. SDS-PAGE, immunoblotting, and immunoprecipitation were performed as described. H4 cells after 16 h of transfection were washed twice with cold phosphate buffered saline supplemented with 0.1 mM CaCl2 and 1 mM MgCl2 (PBS-Ca/Mg), and incubated at 4°C for 1 h in lysis buffer (50 mM Tris-HCl pH 7.4, 150 mM NaCl, 1 mM EDTA, 1% (v/v) Triton X-100, and a cocktail of protease inhibitors). Soluble extracts were subjected to overnight immunoprecipitation at 4°C either with rabbit anti-HA-epitope antibody (kindly provided by R. Hegde, MRC Laboratory of Molecular Biology, Cambridge, UK) or with mouse antibody to the ε subunit of AP-4 (BD Biosciences) immobilized onto protein A- or a 1∶1 mix of protein A- and protein-G Sepharose beads (GE Healthcare), respectively. Soluble extracts and immunoprecipitates were processed by SDS-PAGE and blotted with horseradish peroxidase-conjugated mouse anti-HA antibody (Macs Miltenyi Biotec) or with mouse antibody to the ε subunit of AP-4.\nIndirect immunofluorescence staining of fixed, permeabilized cells was performed as previously described, using sheep polyclonal antibody anti-TGN46 (Serotec), and mouse monoclonal antibody anti-EEA1 (BD Biosciences) or rabbit polyclonal antibody anti-EEA1 (Santa Cruz Biotechnology), followed by the secondary antibodies Alexa-647–conjugated donkey anti-mouse IgG, Alexa-594–conjugated donkey anti-rabbit IgG, or Alexa-594– or -647–conjugated donkey anti-sheep IgG (Life Technologies). Images were acquired either with an Olympus FluoView FV1000 scanning unit fitted on an inverted Olympus IX81 microscope and equipped with a PlanApo 60x oil immersion objective (NA 1.40; Olympus, Melville, NY), using similar settings as described previously, or with an AxioObserver.D1 microscope equipped with a PlanApo 63x oil immersion objective (NA 1.4), and an AxioCam MRm digital camera (Carl Zeiss). Quantitative analysis of colocalization was performed as we previously described, with minor modifications. Briefly, 12-bit images were acquired under identical settings avoiding signal saturation, and corrected for noise, cross-talk, and background signals on each set of images. The signals of TGN46 or EEA1 in each set of images were used in Image J (version 1.44o; Wayne Rasband, NIH, http://imagej.nih.gov) to define masks regarded as Golgi/TGN or early endosomes localization, respectively. The percentage of localization in each compartment was calculated for each cell (n = 10–15) subtracting either the Golgi/TGN or the early endosomes mask from the total integrated pixel intensity of APP-GFP, and the remainder of the signal was considered as in the ‘rest of the cell’.\nWe next examined the functional role of both the μ2- and the μ4-binding site of μ4 on the intracellular trafficking of APP. We have shown that the YKFFE-μ4 interaction is functional in vivo because its disruption by depletion of μ4 by RNAi produces a shift in the distribution of APP from endosomes to the TGN [18]. To evaluate now the function of each binding site for tyrosine-based signals, we tested a dominant-negative effect by overexpressing untagged or HA-epitope-tagged full-length wild-type μ4 or the variants untagged or HA-epitope-tagged μ4-D190A, μ4-D190S, μ4-F255A or μ4-R283D in H4 neuroglioma cells, as well as in MDA-MB-231 mammary gland epithelial cells, and examined by immunofluorescence the distribution of APP-GFP. […]"}}, "note": "Numbering of substitutions follows the chain as printed. Names and notes keep the numbering of the source.", "data": [{"molecule": "B1", "values": [{"measurement": "effect of mutation on binding to the APP YKFFE signal (Y2H)", "setting": "[1]", "result": "little or no effects"}]}, {"molecule": "B2", "values": [{"measurement": "effect of mutation on interaction of the APP tail with μ4 (Y2H)", "setting": "[1]", "result": "little or no effect"}]}, {"molecule": "B3", "values": [{"measurement": "effect of mutation on binding to the APP YKFFE signal (Y2H)", "setting": "[1]", "result": "completely abolished"}]}, {"molecule": "B4", "values": [{"measurement": "effect of mutation on interaction of the APP tail with μ4 (Y2H)", "setting": "[1]", "result": "little or no effect"}]}, {"molecule": "B5", "values": [{"measurement": "effect of mutation on interaction of the APP tail with μ4 (Y2H)", "setting": "[1]", "result": "little or no effect"}]}, {"molecule": "B6", "values": [{"measurement": "effect of mutation on interaction of the APP tail with μ4 (Y2H)", "setting": "[1]", "result": "little or no effect"}]}, {"molecule": "B7", "values": [{"measurement": "effect of mutation on binding to the APP YKFFE signal (Y2H)", "setting": "[1]", "result": "completely abolished"}]}, {"molecule": "B8", "values": [{"measurement": "effect of mutation on binding to the APP YKFFE signal (Y2H)", "setting": "[1]", "result": "little or no effects"}]}, {"molecule": "B9", "values": [{"measurement": "effect of mutation on binding to the APP YKFFE signal (Y2H)", "setting": "[1]", "result": "little or no effects"}]}, {"molecule": "B10", "values": [{"measurement": "effect of mutation on binding to the APP YKFFE signal (Y2H)", "setting": "[1]", "result": "drastically reduced"}]}, {"molecule": "B11", "values": [{"measurement": "effect of mutation on interaction of the APP tail with μ4 (Y2H)", "setting": "[1]", "result": "little or no effect"}]}, {"molecule": "B12", "values": [{"measurement": "effect of mutation on binding to the APP YKFFE signal (Y2H)", "setting": "[1]", "result": "little or no effects"}]}, {"molecule": "B13", "values": [{"measurement": "change in distribution of APP", "setting": "[2]", "result": "no apparent change in the distribution of APP"}]}]}
